Results reported in US20200317768A1 (published 2020).
Positions count from the first letter of the chain named.

T1: cynomolgus monkey FcγRIIIaS extracellular domain, His-tagged (cynomolgus monkey, UniProt Q8SPW2 21-206 at identity 1.00))
T1 construct: also called cyno FcγRIIIaS; cynoFcγRIIIaS
T1 chain: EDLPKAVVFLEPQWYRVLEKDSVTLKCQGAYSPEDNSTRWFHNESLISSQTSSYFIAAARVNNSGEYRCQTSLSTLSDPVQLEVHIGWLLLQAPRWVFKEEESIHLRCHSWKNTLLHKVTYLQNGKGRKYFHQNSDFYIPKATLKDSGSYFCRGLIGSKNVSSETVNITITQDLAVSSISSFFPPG

T2: human FcγRIIb extracellular domain, His-tagged (human, UniProt P31994 43-217)
T2 construct: also called FcgRIIb (human)
T2 sequence: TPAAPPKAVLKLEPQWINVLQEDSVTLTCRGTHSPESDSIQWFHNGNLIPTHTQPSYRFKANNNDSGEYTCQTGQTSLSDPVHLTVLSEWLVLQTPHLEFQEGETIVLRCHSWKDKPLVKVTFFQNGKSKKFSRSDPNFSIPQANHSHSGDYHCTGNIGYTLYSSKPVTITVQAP

T3: cynomolgus monkey FcγRIIb extracellular domain, His-tagged (cynomolgus monkey)
T3 construct: also called cyno FcγRIIb; cynoFcγRIIb
T3 chain: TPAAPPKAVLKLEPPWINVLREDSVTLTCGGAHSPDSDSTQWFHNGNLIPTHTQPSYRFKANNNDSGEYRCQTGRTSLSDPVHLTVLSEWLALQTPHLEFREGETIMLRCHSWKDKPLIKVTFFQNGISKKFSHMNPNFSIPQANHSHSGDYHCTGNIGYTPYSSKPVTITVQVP

T4: cynomolgus monkey FcγRIIa1 extracellular domain, His-tagged (cynomolgus monkey)
T4 construct: also called cyno FcγRIIa1; cynoFcgRIIa1
T4 chain: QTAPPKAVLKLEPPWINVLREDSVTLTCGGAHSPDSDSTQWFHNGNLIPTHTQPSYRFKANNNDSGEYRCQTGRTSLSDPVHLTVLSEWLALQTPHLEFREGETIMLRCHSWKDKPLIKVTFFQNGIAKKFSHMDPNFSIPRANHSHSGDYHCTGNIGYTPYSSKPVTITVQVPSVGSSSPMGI

T5: cynomolgus monkey FcγRIIa2 extracellular domain, His-tagged (cynomolgus monkey)
T5 construct: also called cyno FcγRIIa2; cynoFcgRIIa2
T5 chain: T4 chain with P95T, T121A, I127K, A128S, K130N, D135N, R142Q

T6: cynomolgus monkey FcγRIIa3 extracellular domain, His-tagged (cynomolgus monkey)
T6 construct: also called cyno FcγRIIa3; cynoFcgRIIa3
T6 chain: T4 chain with P95T, T121A, A128S, H133P, D135N

T7: human FcγRIIaR extracellular domain, His-tagged (human, UniProt P12318 34-217)
T7 construct: also called human FcγRIIa (type R); FcgRIIaR
T7 chain: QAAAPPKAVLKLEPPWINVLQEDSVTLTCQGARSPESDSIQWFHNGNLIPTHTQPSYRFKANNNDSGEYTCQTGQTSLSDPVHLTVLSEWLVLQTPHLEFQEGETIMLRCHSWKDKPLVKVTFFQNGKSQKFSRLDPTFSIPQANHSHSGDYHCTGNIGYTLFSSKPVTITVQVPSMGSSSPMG

T8: human FcγRIIaH extracellular domain, His-tagged (human, UniProt P12318 34-217)
T8 construct: also called human FcγRIIa (type H); FcgRIIaH
T8 sequence: T7 chain with R134H

B1: M103205H795-MY065/M103202L889-SK1 (antibody, human IgG1, kappa)
heavy: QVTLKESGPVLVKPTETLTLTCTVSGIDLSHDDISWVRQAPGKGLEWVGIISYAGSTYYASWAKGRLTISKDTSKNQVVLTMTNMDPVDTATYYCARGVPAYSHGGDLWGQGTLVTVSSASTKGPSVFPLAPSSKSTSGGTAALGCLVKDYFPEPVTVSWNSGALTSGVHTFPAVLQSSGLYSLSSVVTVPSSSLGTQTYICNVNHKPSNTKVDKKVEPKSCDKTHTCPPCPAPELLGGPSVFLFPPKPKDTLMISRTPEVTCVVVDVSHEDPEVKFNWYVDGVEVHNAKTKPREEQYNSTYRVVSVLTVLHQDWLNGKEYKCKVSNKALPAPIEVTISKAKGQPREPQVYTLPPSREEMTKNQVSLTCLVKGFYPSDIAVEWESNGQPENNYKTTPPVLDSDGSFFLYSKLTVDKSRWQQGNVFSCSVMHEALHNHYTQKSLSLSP
light: DIVMTQSPATLSLSPGERATLSCTSSQSVYHANWLSWFQQKPGQPPKLLIYWASTLAYGVPSRFSGSGSGTDFTLTISSLQPEDAATYYCAGGYGGGRYAFGQGTKVEIKRTVAAPSVFIFPPSDEQLKSGTASVVCLLNNFYPREAKVQWKVDNALQSGNSQESVTEQDSKDSTYSLSSTLTLSKADYEKHKVYACEVTHQGLSSPVTKSFNRGEC
notes: Substitution put into M103205H795-SG1
B2: M103205H795-MY069/M103202L889-SK1 (antibody, human IgG1, kappa)
heavy: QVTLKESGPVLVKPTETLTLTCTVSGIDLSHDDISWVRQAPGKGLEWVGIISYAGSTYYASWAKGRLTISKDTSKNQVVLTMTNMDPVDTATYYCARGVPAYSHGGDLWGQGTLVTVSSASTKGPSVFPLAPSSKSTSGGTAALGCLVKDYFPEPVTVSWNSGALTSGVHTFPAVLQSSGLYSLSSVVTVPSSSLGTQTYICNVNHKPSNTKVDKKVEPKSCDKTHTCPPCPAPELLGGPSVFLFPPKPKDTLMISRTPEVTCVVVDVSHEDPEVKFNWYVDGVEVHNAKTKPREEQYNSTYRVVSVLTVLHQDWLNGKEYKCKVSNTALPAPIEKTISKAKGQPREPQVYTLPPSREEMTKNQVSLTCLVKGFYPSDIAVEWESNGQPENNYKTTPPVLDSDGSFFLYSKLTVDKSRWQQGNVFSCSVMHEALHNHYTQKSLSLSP
light: B1 light
notes: as for B1
B3: M103205H795-MY071/M103202L889-SK1 (antibody, human IgG1, kappa)
heavy: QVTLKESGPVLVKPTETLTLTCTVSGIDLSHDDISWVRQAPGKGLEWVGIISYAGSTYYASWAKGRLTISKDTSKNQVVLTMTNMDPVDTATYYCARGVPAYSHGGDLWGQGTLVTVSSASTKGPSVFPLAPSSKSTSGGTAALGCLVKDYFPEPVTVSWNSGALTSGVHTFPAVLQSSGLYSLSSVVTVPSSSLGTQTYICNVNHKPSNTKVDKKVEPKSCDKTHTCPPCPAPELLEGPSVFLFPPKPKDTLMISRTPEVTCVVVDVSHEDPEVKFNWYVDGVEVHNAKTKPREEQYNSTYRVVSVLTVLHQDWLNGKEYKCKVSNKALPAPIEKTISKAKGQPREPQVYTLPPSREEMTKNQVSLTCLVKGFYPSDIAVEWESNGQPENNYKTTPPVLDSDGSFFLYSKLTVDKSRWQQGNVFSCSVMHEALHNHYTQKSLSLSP
light: B1 light
notes: as for B1
B4: M103205H795-MY070/M103202L889-SK1 (antibody, human IgG1, kappa)
heavy: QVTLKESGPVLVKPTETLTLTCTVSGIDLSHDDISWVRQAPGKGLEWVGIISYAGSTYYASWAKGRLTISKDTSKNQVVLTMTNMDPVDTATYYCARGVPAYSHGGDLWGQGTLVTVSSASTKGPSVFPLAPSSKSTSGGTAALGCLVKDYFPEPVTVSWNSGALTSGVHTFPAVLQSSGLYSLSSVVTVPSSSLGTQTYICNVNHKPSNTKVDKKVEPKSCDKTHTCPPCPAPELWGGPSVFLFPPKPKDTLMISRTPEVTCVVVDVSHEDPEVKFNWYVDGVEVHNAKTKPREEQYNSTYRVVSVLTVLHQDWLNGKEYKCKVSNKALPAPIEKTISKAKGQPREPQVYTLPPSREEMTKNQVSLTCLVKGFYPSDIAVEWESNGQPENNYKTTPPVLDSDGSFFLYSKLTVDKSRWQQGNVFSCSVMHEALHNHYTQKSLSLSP
light: B1 light
notes: as for B1
B5: M103205H795-MY072/M103202L889-SK1 (antibody, human IgG1, kappa)
heavy: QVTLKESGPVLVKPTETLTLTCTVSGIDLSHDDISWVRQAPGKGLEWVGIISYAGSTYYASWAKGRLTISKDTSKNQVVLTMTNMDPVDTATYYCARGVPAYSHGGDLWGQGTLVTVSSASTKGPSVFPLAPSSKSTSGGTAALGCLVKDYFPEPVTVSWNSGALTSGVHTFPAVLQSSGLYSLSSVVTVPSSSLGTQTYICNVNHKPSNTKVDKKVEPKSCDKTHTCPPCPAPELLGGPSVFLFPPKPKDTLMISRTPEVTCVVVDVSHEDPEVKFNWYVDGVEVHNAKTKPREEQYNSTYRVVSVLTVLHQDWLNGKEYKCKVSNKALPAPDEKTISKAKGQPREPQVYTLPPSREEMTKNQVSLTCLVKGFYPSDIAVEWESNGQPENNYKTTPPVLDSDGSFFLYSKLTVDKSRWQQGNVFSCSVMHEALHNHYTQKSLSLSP
light: B1 light
notes: as for B1
B6: M103205H795-MY073/M103202L889-SK1 (antibody, human IgG1, kappa)
heavy: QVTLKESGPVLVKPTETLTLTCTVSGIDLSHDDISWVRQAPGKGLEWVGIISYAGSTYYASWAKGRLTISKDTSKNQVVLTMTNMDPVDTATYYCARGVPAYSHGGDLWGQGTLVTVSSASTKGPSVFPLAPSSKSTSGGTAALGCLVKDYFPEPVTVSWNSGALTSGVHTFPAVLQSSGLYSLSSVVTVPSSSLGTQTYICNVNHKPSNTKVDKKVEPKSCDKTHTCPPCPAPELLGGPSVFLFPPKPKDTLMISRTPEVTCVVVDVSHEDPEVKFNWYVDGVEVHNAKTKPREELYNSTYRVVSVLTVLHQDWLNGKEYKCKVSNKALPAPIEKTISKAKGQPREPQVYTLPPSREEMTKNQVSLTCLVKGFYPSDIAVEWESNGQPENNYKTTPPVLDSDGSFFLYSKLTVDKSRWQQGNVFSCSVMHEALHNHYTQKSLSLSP
light: B1 light
notes: as for B1
B7: M103205H795-MY124/M103202L889-SK1 (antibody, human IgG1, kappa)
heavy: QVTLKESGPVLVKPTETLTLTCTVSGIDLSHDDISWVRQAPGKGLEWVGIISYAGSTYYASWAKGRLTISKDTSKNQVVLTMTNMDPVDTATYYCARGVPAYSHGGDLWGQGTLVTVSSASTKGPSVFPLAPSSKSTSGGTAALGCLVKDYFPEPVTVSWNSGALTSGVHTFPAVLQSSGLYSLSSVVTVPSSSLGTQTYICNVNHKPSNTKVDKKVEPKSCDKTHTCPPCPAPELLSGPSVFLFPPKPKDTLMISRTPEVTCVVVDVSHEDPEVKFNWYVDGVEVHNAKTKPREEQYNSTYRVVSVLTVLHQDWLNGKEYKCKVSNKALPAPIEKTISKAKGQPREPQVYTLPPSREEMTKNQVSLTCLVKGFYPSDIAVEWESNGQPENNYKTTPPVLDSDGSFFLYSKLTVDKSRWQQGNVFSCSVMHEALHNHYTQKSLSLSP
light: B1 light
notes: as for B1
B8: M103205H795-MY068/M103202L889-SK1 (antibody, human IgG1, kappa)
heavy: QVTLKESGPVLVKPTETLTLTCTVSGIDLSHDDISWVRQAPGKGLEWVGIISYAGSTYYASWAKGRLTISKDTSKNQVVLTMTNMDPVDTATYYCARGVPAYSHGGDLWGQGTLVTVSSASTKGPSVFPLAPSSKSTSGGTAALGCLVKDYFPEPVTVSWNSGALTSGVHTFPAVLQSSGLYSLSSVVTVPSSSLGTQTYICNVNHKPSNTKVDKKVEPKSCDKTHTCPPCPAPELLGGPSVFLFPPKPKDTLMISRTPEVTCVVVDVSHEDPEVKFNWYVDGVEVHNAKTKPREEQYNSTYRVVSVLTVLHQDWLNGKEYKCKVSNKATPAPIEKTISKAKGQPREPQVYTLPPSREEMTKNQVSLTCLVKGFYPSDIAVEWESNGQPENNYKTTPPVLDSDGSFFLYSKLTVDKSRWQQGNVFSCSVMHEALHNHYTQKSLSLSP
light: B1 light
notes: as for B1
B9: M103205H795-MY196/M103202L889-SK1 (antibody, human IgG1, kappa)
heavy: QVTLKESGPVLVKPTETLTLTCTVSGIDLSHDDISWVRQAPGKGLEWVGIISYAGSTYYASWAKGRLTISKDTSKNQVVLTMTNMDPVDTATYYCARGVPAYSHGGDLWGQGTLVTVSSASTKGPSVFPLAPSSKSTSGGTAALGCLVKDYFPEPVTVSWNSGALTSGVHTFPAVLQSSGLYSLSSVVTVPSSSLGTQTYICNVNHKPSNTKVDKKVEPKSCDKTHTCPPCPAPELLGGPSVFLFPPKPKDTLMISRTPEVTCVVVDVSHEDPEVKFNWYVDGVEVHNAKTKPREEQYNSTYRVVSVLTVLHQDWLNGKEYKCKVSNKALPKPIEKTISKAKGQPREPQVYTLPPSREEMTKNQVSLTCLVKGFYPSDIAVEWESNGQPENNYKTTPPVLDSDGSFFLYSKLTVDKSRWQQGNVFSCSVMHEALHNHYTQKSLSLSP
light: B1 light
notes: as for B1

Target: T1, cynomolgus monkey FcγRIIIaS …
Assay: SPR, antibody captured, FcgR analyte

Kd	Binder
110 nM	B1
86 nM	B2
280 nM	B3
490 nM	B4
53 nM	B5
170 nM	B6
1300 nM	B7
580 nM	B8
600 nM	B9

Target: T2, human FcγRIIb extracellular domain, …
Assay: SPR; KD of SG1 / KD of variant;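 also: relative to parent M103205H795-SG1 carrying the SG1 human heavy chain constant region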

KD fold (SG1 = 1)	Binder
2.4 fold	B1
2.9 fold	B2
1.9 fold	B3
1.8 fold	B4
3.1 fold	B5
2.3 fold	B6
0.5 fold	B7
2.7 fold	B8
0.7 fold	B9

Target: T9, human FcγRIIIaV extracellular domain, His-tagged (human, UniProt P08637 17-208)
T9 construct: also called FcgRIIIaV
Assay: SPR; KD of SG1 / KD of variant;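 also: relative to parent M103205H795-SG1 carrying the SG1 human heavy chain constant region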

T9 sequence (P08637 17-208 F176V): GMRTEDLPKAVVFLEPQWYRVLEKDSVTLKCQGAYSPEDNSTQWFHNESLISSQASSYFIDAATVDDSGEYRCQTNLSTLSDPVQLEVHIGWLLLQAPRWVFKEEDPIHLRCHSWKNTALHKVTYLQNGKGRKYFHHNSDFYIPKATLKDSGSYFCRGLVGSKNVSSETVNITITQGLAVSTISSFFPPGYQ

KD fold (SG1 = 1)	Binder
3.52 fold	B1
3.38 fold	B2
1.59 fold	B3
1.16 fold	B4
6.75 fold	B5
2.38 fold	B6
0.16 fold	B7
0.58 fold	B8
0.37 fold	B9

Target: T3, cynomolgus monkey FcγRIIb extracellular …
Assay: SPR; KD of SG1 / KD of variant;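 also: relative to parent M103205H795-SG1 carrying the SG1 human heavy chain constant region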

KD fold (SG1 = 1)	Binder
1.4 fold	B1
2.5 fold	B2
0.7 fold	B3
1.5 fold	B4
3.8 fold	B5
2.7 fold	B6
0.8 fold	B7
1.8 fold	B8
0.8 fold	B9

Target: T4, cynomolgus monkey FcγRIIa1 …
Assay: SPR; KD of SG1 / KD of variant;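 also: relative to parent M103205H795-SG1 carrying the SG1 human heavy chain constant region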

KD fold (SG1 = 1)	Binder
1.4 fold	B1
2 fold	B2
0.6 fold	B3
1.4 fold	B4
3.2 fold	B5
2.7 fold	B6
1.7 fold	B7
1.5 fold	B8
1.3 fold	B9

Target: T5, cynomolgus monkey FcγRIIa2 …
Assay: SPR; KD of SG1 / KD of variant

KD fold (SG1 = 1)	Binder
1.8 fold	B1
3.2 fold	B2
1.4 fold	B3
1.8 fold	B4
4.3 fold	B5
8.9 fold	B6
1.6 fold	B7
1.9 fold	B8
1.7 fold	B9

Target: T6, cynomolgus monkey FcγRIIa3 …
Assay: SPR; KD of SG1 / KD of variant

KD fold (SG1 = 1)	Binder
4 fold	B1
2.6 fold	B2
1.5 fold	B3
3.6 fold	B4
6.5 fold	B5
3.3 fold	B6
1.4 fold	B7
3 fold	B8
0.7 fold	B9

Target: T7, human FcγRIIaR extracellular domain, …
Assay: SPR; KD of SG1 / KD of variant

KD fold (SG1 = 1)	Binder
2.2 fold	B1
2.8 fold	B2
2.4 fold	B3
1.5 fold	B4
2.3 fold	B5
2.2 fold	B6
2.1 fold	B7
2.1 fold	B8
0.8 fold	B9

Target: T8, human FcγRIIaH extracellular domain, …
Assay: SPR; KD of SG1 / KD of variant

KD fold (SG1 = 1)	Binder
1.3 fold	B1
1.6 fold	B2
1.7 fold	B3
1.4 fold	B4
2.8 fold	B5
2.9 fold	B6
4.9 fold	B7
1.9 fold	B8
1.4 fold	B9
